Measured values as given in US20030045688A1, “Human interleukin-four induced protein” (priority 2000, published 2003).

Assays:
[1] = FIG. 1 enzyme assay using OPD (L-amino acid oxidase activity); format: biochemical; settings: for substrate preference of LAAO activity: L-amino acid substrates; for pH optimum of L-amino acid oxidase (LAAO) activity: pH value at which activity is maximal
Description: 3,3′,5,5′-tetramethylbenzidine (TMB) or o-phenylenediamine (OPD) is used as a chromogenic substrate in the FIG. 1 assay. TMB is advantageous because it is not mutagenic and therefore not likely to be carcinogenic, whereas OPD and o-dianisidine are mutagenic.
To perform these measurements, we developed a FIG. 1 enzyme assay using OPD as a substrate.
For the FIG. 1 enzyme assay using OPD, 10 μl of sample is added to a 190 μl assay mixture resulting in a 200 μl reaction with final concentration of 5 to 50 mM L-phenylalanine (Sigma, St. Louis, Mo.), 10 U/ml peroxidase (Sigma), 0.5 mg/ml OPD (Sigma), and 52.5 mM sodium acetate (pH 4). The reaction is incubated for 2 hours at 37° C., after which the reaction is stopped by the addition of 11 μl 36N sulfuric acid (H2SO4). The quantity of H2O2 generated is determined by measuring absorbance at 490 nm. FIG. 1 enzyme activity in Units is determined by comparison with a standard curve generated using known concentrations of H2O2. The amount of H2O2 (μM) corresponding to the observed absorbance at 490 nm is the amount of L-phenylalanine oxidized, since one H2O2 molecule is produced per L-amino acid oxidized. Therefore, FIG. 1 enzyme units can be calculated as follows:
Units (μmol/min)=(μM)/min×V
One unit oxidizes one micromole of L-phenylalanine per minute at 37° C. and pH 4.

[2] = tested on: murine B cell line (M.12.4.1); assay: Transfection of murine B cell line with vectors expressing mouse FIG. 1; cell toxicity; format: cell-based; settings: clones expressing FIG. 1 in the insoluble cell fraction; no stable transfectants obtained
Source text: A murine B cell line (M.12.4.1) and fibroblast line (NIH3T3) is transfected with vectors expressing mouse FIG. 1. Specifically, a 1985 bp BamHI fragment containing the full length mouse FIG. 1 cDNA is inserted into the BamHI site of the pREP9 vector (InVitrogen, Carlsbad, Calif.), resulting in pMN10-9, a plasmid that expresses FIG. 1 mRNA from the vector's RSV 3′ LTR promoter. A 1930 bp PvuII/EcoRI fragment containing the full length mouse FIG. 1 cDNA is inserted into the Ecl126II/EcoRI sites of pIRES2-EGFP (Clontech), resulting in plasmid mFIG. 1-iGFP (also known as pAFFP), a plasmid that expresses FIG. 1 mRNA from the vector's CMV promoter.
NIH 3T3 cells are transfected with plasmid DNA using the calcium phosphate method. In particular, a Calcium Phosphate Mammalian Cell Transfection Kit (5 Prime→3 Prime, Inc., Boulder, Colo.) or Calcium Phosphate Transfection System (Life Technologies, Inc., Rockville, Md.) is used. A 40 μg plasmid DNA/calcium phosphate precipitate is prepared according to manufacturer's protocol and used to transfect 2×10^6 cells. M12.4. 1 cells are transfected by electorporation or with an Effectene Transfection Reagent (Qiagen, Inc., Valencia, Calif.). […]
During the selection of M.12.1 bulk transfectants, LAAO activity is detected after 15 days, peaking at 17 days, declining after 20 days to undetectable using procedures described above. […]

[3] = listed as interleukin four induced protein

B1: FIG. 1: mouse immediate early interleukin-four induced protein with L-amino acid oxidase activity (SEQ ID NO:1), expressed in transfected cells (protein, listed as Mus sp.)
chain: MAGLALRLVLAATLLGLAGSLDWKAASSLNPIEKCMEDHDYEQLLKVVTLGLNRTSKPQKVVVVGAGVAGLVAAKMLSDAGHKVTILEADNRIGGRIFTFRDEKTGWIGELGAMRMPSSHRILHKLCRTLGLNLTQFTQYDENTWTEVHNVKLRNYVVEKMPEKLGYNLNNRERGHSPEDIYQMALNKAFKDLKALGCKKAMNKFNKHTLLEYLLEEGNLSRPAVQLLGDVMSEEGFFYLSFAEALRAHACLSDRLRYSRIVGGWDLLPRALLSSLSGALLLNAPVVSITQGRNDVRVHIATSLHSEKTLTADVVLLTASGPALQRITFSPPLTRKRQEALRALHYVAASKVFLSFRRPFWHEEHIEGGHSNTDRPSRLIFYPARGEGSLLLASYTWSDAAAPFAGLSTDQTLRLVLQDVAALHGPVVFRLWDGRGVVKRWAEDPHSQGGFVVQPPLYGREAEDYDWSAPFGRIYFAGEHTALPHGWVETAVKSGLRAAVRINNNYGYGEVDPQMMEHAYAEANYLDQYPEGERPEEQQAREEVSPDEQEPSHKHLLVETSPEGQQHAFVEAIPELQGHVFVETVPQEKGHAHQNIYPSEHVQVHGEVIPEWHGHGGSGTPQMHRVGDHS
[1]
  substrate preference of LAAO activity: prefers aromatic amino acids as a substrate, with phenylalanine (Phe) being the optimal substrate
  pH optimum of L-amino acid oxidase (LAAO) activity: 4
[1]; listed as FIG. 1 protein
  substrate preference of LAAO activity: prefers aromatic L-amino acids for substrates, particularly L-phenylalanine
  pH optimum of L-amino acid oxidase (LAAO) activity: 4
[1]; [3]
  substrate preference of LAAO activity: lesser specificity for other aromatic amino acids such as tyrosine and tryptophan
  pH optimum of L-amino acid oxidase (LAAO) activity: 4.0
[1]; compared with pH 4.0
  LAAO activity at pH values other than the optimum: lower activity at pH 5, 8 and 9
[2]
  cell death in FIG. 1 transfectants: significant cell death
